Values quoted from earlier work as cited in PMC3629029.

Biological target: calreticulin (Homo sapiens) (UniProt P27797)
Experiment: SPR

Sequence of UniProt P27797 (P27797 18-417): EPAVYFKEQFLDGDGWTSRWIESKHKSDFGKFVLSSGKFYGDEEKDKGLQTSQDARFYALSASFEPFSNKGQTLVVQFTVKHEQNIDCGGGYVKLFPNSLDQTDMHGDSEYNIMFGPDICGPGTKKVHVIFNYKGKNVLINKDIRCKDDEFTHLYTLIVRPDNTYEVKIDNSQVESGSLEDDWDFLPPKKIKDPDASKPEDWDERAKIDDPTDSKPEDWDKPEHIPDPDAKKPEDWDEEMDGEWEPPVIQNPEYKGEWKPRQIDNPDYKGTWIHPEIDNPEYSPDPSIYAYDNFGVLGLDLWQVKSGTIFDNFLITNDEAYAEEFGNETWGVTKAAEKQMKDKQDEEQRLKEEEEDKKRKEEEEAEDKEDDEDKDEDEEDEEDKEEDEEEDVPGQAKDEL

Question: For PDIR (from UniProt Q14554), which Kd is on record?
Answer: 16 µM
